In patent US20240026334:

Target: type I collagen (Rattus norvegicus) (UniProt P02454+P02466)
Conditions: maximum binding at 12-18% DNA mass fraction; binding decreases at higher DNA fraction, no fibers at ~45% DNA; collagen species not stated in this example

Sequence of type I collagen (Rattus norvegicus) (P02454 152-1207, chain 1 of 2): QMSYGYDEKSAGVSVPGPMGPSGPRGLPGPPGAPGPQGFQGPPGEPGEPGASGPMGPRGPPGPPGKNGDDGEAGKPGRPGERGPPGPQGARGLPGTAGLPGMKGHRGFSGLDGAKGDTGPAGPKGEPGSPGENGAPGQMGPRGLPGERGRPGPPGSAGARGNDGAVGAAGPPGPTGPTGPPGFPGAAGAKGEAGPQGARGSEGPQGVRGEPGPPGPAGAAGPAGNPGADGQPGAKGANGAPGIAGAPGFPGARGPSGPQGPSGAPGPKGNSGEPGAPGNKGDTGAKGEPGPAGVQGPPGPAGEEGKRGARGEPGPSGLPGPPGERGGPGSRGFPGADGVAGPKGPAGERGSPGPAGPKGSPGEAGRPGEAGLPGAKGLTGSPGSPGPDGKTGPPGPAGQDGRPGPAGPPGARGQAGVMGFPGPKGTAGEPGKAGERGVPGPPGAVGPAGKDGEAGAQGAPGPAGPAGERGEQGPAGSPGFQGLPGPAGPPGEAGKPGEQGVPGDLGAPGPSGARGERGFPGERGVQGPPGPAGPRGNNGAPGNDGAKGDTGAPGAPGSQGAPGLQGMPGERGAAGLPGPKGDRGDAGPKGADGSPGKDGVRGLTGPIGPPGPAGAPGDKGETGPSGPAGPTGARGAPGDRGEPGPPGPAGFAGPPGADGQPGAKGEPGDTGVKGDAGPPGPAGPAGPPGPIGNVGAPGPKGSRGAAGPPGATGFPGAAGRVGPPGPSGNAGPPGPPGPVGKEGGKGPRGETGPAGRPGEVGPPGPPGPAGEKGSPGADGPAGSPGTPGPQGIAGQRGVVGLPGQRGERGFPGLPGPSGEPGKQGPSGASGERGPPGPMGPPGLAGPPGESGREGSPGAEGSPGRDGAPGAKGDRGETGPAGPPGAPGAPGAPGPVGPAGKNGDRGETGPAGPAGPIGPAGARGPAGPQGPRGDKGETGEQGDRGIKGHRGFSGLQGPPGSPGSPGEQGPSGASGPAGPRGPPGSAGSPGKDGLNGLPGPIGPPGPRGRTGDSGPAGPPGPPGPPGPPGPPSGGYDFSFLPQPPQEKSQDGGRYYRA
Sequence of type I collagen (Rattus norvegicus) (P02466 86-1125, chain 2 of 2): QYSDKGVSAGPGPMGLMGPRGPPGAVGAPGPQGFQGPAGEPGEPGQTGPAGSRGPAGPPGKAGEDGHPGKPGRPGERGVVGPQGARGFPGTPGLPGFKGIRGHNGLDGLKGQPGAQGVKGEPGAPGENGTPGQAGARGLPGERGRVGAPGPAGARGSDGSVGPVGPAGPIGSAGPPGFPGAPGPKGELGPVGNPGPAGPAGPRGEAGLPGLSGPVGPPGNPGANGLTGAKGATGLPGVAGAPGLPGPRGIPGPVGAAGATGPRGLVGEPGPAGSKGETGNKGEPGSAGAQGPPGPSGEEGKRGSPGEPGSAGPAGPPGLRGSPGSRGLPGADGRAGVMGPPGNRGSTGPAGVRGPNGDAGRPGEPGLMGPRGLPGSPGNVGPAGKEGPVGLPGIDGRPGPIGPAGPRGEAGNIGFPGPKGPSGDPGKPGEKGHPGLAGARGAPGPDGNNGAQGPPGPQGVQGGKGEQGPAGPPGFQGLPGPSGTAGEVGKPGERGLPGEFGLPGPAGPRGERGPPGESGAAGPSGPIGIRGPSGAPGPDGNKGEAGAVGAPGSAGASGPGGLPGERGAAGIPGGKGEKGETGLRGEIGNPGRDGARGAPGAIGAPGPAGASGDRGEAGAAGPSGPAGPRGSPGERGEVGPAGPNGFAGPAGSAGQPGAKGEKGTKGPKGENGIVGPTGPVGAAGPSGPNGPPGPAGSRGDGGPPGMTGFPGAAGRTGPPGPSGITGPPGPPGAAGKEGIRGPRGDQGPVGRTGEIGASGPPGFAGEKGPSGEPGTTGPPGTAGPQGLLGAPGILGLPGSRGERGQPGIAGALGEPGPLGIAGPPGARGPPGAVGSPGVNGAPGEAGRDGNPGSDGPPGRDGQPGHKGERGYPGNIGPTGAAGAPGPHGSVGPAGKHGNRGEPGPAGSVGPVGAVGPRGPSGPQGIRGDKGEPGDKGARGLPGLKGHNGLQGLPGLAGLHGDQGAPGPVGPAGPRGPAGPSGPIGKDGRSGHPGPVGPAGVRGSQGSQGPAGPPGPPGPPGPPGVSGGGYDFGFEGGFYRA

## AATTTAGGAGCTGAAGGTCAGGGCACCAGCAGCCTTTGGAAGCCTAVAGGACAACAGTCAGCCTGGCTAGAAAAAAAAACAATGTCACAG [90 nt random ssDNA oligomer]
  binding (ug ssDNA/ug collagen): 0.15
